According to patent publication US12540197B2, “Anti-tissue factor antibodies and antibody conjugates, compositions comprising anti-tissue factor antibodies or antibody conjugates, and methods of making and using anti-tissue factor antibodies and antibody conjugates” (SUTRO BIOPHARMA, INC., priority 2023, dated 2026):
Numbering of substitutions follows the chain as printed.

B1: 47 (antibody)
heavy: MEVQLVESGGGLVQPGGSLRLSCAASGFSISSYDMSWVRQAPGKGLEWIGIIGSNGRTYYPDSVKGRFTISRDNSKNTVTLQMNSLRAEDTAVYYCARGLYDGTGNIWGQGTLVTVSSASTKGPSVFPLAPSSKSTSGGTAALGCLVKDYFPEPVTVSWNSGALTSGVHTFPAVLQSSGLSLSSVVTVPSSSLGTQTYICNVNHKPSNTKVDKKVEPKSCDKTHTCPPCPAPELLGGPSVFLFPPKPKDTLMISRTPEVTCVVVDVSHEDPEVKFNWYVDGVEVHNAKTKPREEQYNSTYRVVSVLTVLHQDWLNGKEYKCKVSNKALPAPIEKTISKAKGQPREPQVYTLPPSREEMTKNQVSLTCLVKGFYPSDIAVEWESNGQPENNYKTTPPVLDSDGSFLYSKLTVDKSRWQQGNVFSCSVMHEALHNHYTQKSLSLSPGK
light: MDLQMTQSPSSLSASVGDRVTITCRASQSVYGNNWLSWYQQKPGKAPKLLIYGASKLASGVPSRFSGSGSGTQFTLTISSLQPEDFATYYCQGTYYSGDWYFAFGQGTKVEIKRTVAAPSVFIFPPSDEQLKSGTASVVCLLNNFYPREAKVQWKVDNALQSGNSQESVTEQDSKDSTYSLSSTLTLSKADYEKHKVYACEVTHQGLSSPVTKSFNRGEC
modifications: pAzMeF at Y180/F404; conjugate
B2: 48 (antibody)
heavy: B1 heavy with E2Q, L5V, Q14K, V38I, P61A, D73N, N74T, S75N, K76E, T80Y
light: B1 light with L3I, R25Q, Q73D, Q106G
modifications: pAzMeF at Y180/F404; conjugate
B3: 49 (antibody)
heavy: MQVQVQESGPGLVKPPGTLSLTCAVSGFSLSYYGVSWVRQPPGKGLEWIGTIDSSGRTYYNPSLKSRVTISNDNAPNTVSLKLSSVTAADTAVYYCARDFYGWNSGALDIWGQGTLVTVSSASTKGPSVFPLAPSSKSTSGGTAALGCLVKDYFPEPVTVSWNSGALTSGVHTFPAVLQSSGLSLSSVVTVPSSSLGTQTYICNVNHKPSNTKVDKKVEPKSCDKTHTCPPCPAPELLGGPSVFLFPPKPKDTLMISRTPEVTCVVVDVSHEDPEVKFNWYVDGVEVHNAKTKPREEQYNSTYRVVSVLTVLHQDWLNGKEYKCKVSNKALPAPIEKTISKAKGQPREPQVYTLPPSREEMTKNQVSLTCLVKGFYPSDIAVEWESNGQPENNYKTTPPVLDSDGSFLYSKLTVDKSRWQQGNVFSCSVMHEALHNHYTQKSLSLSPGK
light: MDLQLTQSPSTLSASVGDRVTITCRASQSVYSNKYLSWYQQKPGKAPKLLIYKASTLASGVPSRFSGSGSGTEFTLTISSLQPDDFATYYCAAAYSDDSDTAFGQGTKVEIKRTVAAPSVFIFPPSDEQLKSGTASVVCLLNNFYPREAKVQWKVDNALQSGNSQESVTEQDSKDSTYSLSSTLTLSKADYEKHKVYACEVTHQGLSSPVTKSFNRGEC
modifications: pAzMeF at Y180/F404; conjugate
B4: 2842-B01 HC1/LC3 (antibody)
heavy: B1 heavy with E2Q, L5V, Q14K, V38I, P61A, D73N, N74T, S75N, K76E, T80Y
light: B1 light with L3I, R25Q, Q73D, Q106G
modifications: conjugated to LP1 at Y180/F404
B5: 2842-B01 HC1/LC1 (antibody, V domains shown)
VH: MQVQVVESGGGLVKPGGSLRLSCAASGFSISSYDMSWIRQAPGKGLEWIGIIGSNGRTYYADSVKGRFTISRNTNENTVYLQMNSLRAEDTAVYYCARGLYDGTGNIWGQGTLVTVSS
VL: MDLQMTQSPSSLSASVGDRVTITCRASQSVYGNNWLSWYQQKPGKAPKLLIYGASKLASGVPSRFSGSGSGTQFTLTISSLQPEDFATYYCQGTYYSGDWYFAFGQGTKVEIK
B6: 2842-B01 HC1/LC2 (antibody, V domains shown)
VH: B5 VH
VL: MELVMTQSPPTLSLSPGERVTLSCRASQSVYGNNWLSWYQQKPGQAPRLLIYGASKLATSIPARFSGSGSGTQFTLTISSLQPEDFAVYYCQGTYYSGDWYFAFGQGTKVEIK

tested on: HEK293T; test: FACS cell-binding assay on parental HEK293T cells; conditions: Table 16, parental cells
Source text: HEK293T, BxPC3 cells (TF positive) and NCI-H1703 (TF negative) cells were obtained from ATCC (American Type Culture Collection) and maintained in DMEM:F12 (1:1), high glucose (Corning) supplemented with 10% heat-inactivated fetal bovine serum (ThermoScientific), 1× Penicillin/Streptomycin (Corning) and 2 mmol glutamax (Thermo Fisher Scientific). To generate cells that stably expressing human tissue factor (HEK293T-humanTF) or cynomolgus tissue factor (HEK293T-cynoTF), HEK293T cells were transfected with plasmid vectors that contain the corresponding protein sequence and stable clones were selected with puromycin.
For a fluorescence-activated cell sorting (FACS) cell-binding assay, cells were collected by Accutase and counted by the Vi-CELL Cell Viability Analyzersharvested and, then re-suspended in FACS buffer (DPBS buffer supplemented with 1% bovine serum albumin). A total of 200,000 cells in 100 μL were incubated on ice with 100 μL of anti-TF antibodies in each well of a 96-well plate. Cells were washed twice with ice-cold FACS buffer and then incubated on ice for 60 mins with 5 μg/mL Alexa 647-labeled donkey anti-human Fc antibody (Jackson ImmunoResearch). Unstained cells and cells stained with secondary antibody alone were used as controls. Cells were washed twice with FACS buffer and analyzed using a BD FACS Canto system. Geometric mean fluorescence intensities (MFI) were fitted using non-linear regression analysis with one site specific binding equation on GraphPad Prism (GraphPad Software; La Jolla, CA).

Row | Molecule | HEK293T Bmax (MFI)
1 | B1 | 1285
2 | B2 | 1232
3 | B3 | 1366

biological target: T1, human TF (Homo sapiens, UniProt P13726); test: Biacore off-rate and kinetic binding, human TF; conditions: Table 11, humanized rabbit antibodies; 100 nM antigen, 25° C.
T1 construct: purchased Lake Pharma
Experimental: (§1) Anti-Fc polyclonal antibodies were immobilized onto a CM4 chip (Cytiva #BR100534) using amine coupling chemistry (Human Antibody Capture Kit, Cytiva #BR100839). The immobilization steps were carried out at a flow rate of 25 μL/min in 1×HBS-EP+buffer (Cytiva #BR100669). The sensor surfaces were activated for 7 min with a mixture of N-hydroxysuccinimide (NHS, 0.05 M) and 1-ethyl-3-(3-dimethylaminopropyl)-carbodiimide (EDC, 0.2 M). The anti-Fc polyclonal antibodies were injected over all 4 flow cells at a concentration of 25 μg/mL in 10 mM sodium acetate, pH 4.5, for 7 min. Ethanolamine (1 M, pH 8.5) was injected for 7 min to block any remaining activated groups. Approximately 6,000 response units (RU) of capture antibody was immobilized on each flow cell.
(§2) Off-rate and kinetic binding experiments were performed at 25° C. using 1×HBS-EP+buffer. Antibodies were injected over the anti-Fc surface at a concentration of 3 μg/mL for 12 seconds at a flow rate of 10 μL/min on flow cells 2, 3 and 4, followed by a buffer wash for 30 seconds at the same flow rate. Single point off-rate analysis was carried out using an antigen concentration of 100 nM. […] After capturing ligand (antibody) on the anti-Fc surface, the analyte (human TF, Lake Pharma; cynomolgus TF, Sino Bio #90885-C08H; mouse TF, R&D Systems #3178-PA) was bound for 180 seconds, followed by a 420 second dissociation phase at a flow rate of 50 μL/min. Between each ligand capture and analyte binding cycle, regeneration was carried out using 2 injections of 10 mM glycine pH 2.0 for 30 seconds at 30 μL/min, followed by a 30 second buffer wash step.
(§3) The data were fit with the Biacore T200 Evaluation software, using a 1:1 Langmuir binding model. KD (affinity, nM) was determined as a ratio of the kinetic rate constants calculated from the fits of the association and dissociation phases.
(§4) Anti-Fc polyclonal antibodies were immobilized onto a CM4 chip (Cytiva #BR100534) using amine coupling chemistry (Human Antibody Capture Kit, Cytiva #BR100839). The immobilization steps were carried out at a flow rate of 25 μL/min in 1×HBS-EP+buffer (Cytiva #BR100669). The sensor surfaces were activated for 7 min with a mixture of NHS (0.05 M) and EDC (0.2 M). The Anti-Fc antibodies were injected over all 4 flow cells at a concentration of 25 ug/ml in 10 mM sodium acetate, pH 4.5, for 7 min. Ethanolamine (1 M, pH 8.5) was injected for 7 min to block any remaining activated groups. Approximately 6,000 response units (RU) of capture antibody was immobilized on each flow cell. Off-rate and kinetic binding experiments were performed at 25° C. using 1×HBS-EP+buffer. Antibodies or ADCs were injected over the anti-Fc surface at a concentration of 3 μg/mL for 12 seconds at a flow rate of 10 μL/min on flow cells 2, 3 and 4, followed by a buffer wash for 30 seconds at the same flow rate. […] After capturing ligand (antibody) on the anti-Fc surface, the analyte (human TF, Lake Pharma; cynomolgus TF, Sino Bio #90885-C08H; mouse TF, R&D Systems #3178-PA) was bound for 180 seconds, followed by a 420 second dissociation phase at a flow rate of 50 μL/min. Between each ligand capture and analyte binding cycle, regeneration was carried out using 2 injections of 10 mM Glycine pH 2.0 for 30 seconds at 30 μL/min, followed by a 30 second buffer wash step. The data was fit with the Biacore T200 Evaluation software, using a 1-1 Langmuir binding model. KD (affinity, nM) was determined as a ratio of the kinetic rate constants calculated from the fits of the association and dissociation phases.

T1 sequence (P13726 33-295): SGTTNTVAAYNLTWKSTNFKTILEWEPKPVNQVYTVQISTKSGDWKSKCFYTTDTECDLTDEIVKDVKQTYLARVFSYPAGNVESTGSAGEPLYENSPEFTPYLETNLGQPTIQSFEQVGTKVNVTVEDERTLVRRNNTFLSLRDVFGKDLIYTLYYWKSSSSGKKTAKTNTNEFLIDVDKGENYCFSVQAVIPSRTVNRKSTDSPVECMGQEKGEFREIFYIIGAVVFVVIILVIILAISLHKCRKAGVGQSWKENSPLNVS

Row | Molecule | Biacore human TF single point off-rate kinetics kd [s⁻¹]
4 | B4 | 0.00054
5 | B5 | 0.000727
6 | B6 | 0.000691

same assay, conditions: Table 12; 25° C., 1:1 Langmuir

Row | Molecule | Biacore human TF kinetics ka [M⁻¹ s⁻¹] | Biacore human TF kinetics kd [s⁻¹]
7 | B1 | 54000 | 0.000422
8 | B2 | 71200 | 0.00124
9 | B3 | 62500 | 0.000865

tested on: cynomolgus TF; test: Biacore off-rate and kinetic binding, cynomolgus TF; conditions: Table 11, humanized rabbit antibodies; 100 nM antigen, 25° C.
Experimental: as §1, §2, §3, §4

Sequence of cynomolgus TF (as listed by the source): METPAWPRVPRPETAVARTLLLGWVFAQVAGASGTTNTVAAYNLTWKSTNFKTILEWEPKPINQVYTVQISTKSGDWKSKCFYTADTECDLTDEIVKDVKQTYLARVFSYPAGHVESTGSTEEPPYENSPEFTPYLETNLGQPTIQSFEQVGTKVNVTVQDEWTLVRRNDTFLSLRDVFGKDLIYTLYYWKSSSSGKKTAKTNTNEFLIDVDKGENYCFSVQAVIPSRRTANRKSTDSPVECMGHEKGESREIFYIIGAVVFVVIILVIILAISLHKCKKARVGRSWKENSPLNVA

Row | Molecule | Biacore cynomolgus TF single point off-rate kinetics kd [s⁻¹]
10 | B4 | 0.00117
11 | B5 | 0.00352
12 | B6 | 0.00142

same assay, conditions: Table 12; 25° C., 1:1 Langmuir

Row | Molecule | Biacore cynomolgus TF kinetics ka [M⁻¹ s⁻¹] | Biacore cynomolgus TF kinetics kd [s⁻¹]
13 | B1 | 82700 | 0.00166
14 | B2 | 121000 | 0.00735
15 | B3 | 80800 | 0.00241

tested on: not listed separately; test: DSF protein thermal shift assay (melting temperatures TM1/TM2); assay type: physicochemical; conditions: Table 8, humanized rabbit antibodies; TM2 = Fab domain
Experimental: (§5) A protein thermal shift assay was carried out by mixing the protein to be assayed with an environmentally sensitive dye (SYPRO Orange, Life Technologies #S-6650) and monitoring the fluorescence of the mixture in real time as it underwent controlled thermal denaturation. Protein solutions between 0.2-2 mg/mL were mixed at a 1:1 volumetric ratio with a solution of SYPRO Orange solution diluted 250-fold in PBS+10% sucrose. 10 μL aliquots of the protein-dye mixture were dispensed in quadruplicate in a 384-well microplate (Bio-Rad #MSP-3852). The plate was sealed with an optically clear sealing film (Bio-Rad #MSB-1001) and placed in a 384-well plate real-time thermocycler (Bio-Rad CFX384 Real Time System). The protein-dye mixture was heated from 25° C. to 95° C., at increments of 0.2° C. per cycle, allowing 3 seconds of equilibration at each temperature before taking a fluorescence measurement. At the end of the experiment, the transition melting temperatures (TM1 and TM2) were determined using the Bio-Rad CFX manager software. TM1 represents the melting temperature of the Fc domain. TM2 represents the melting temperature of the Fab domain.
as §5, with “solutions at 1” for “solutions between 0.2-2”, “a 1-1” for “a 1:1”, “sucrose. 5” for “sucrose. 10”

Row | Molecule | DSF TM2 (° C.) [°C]
16 | B4 | 87.6
17 | B5 | 87.3
18 | B6 | 82.4
